Experiments:
[1] = biological target: Recombinant human NGF (Sigma) (human, UniProt P01138 122-241, limits assumed); experiment: cell-based or functional assay
[2] = biological target: Recombinant mouse NGF (R&D Systems) (mouse, UniProt P01139 122-241); experiment: cell-based or functional assay
Recombinant mouse NGF (R&D Systems), sequence (P01139 122-241 limits assumed): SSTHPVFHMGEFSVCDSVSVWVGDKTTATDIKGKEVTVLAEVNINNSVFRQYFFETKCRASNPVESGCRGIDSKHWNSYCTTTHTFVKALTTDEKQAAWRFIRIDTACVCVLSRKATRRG

Recombinant human NGF (Sigma), sequence (P01138 122-241 limits assumed): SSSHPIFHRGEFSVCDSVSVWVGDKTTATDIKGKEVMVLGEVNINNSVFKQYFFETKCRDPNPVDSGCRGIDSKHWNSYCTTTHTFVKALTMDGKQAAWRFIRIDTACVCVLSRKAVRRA

B1: MEDI-578 IgG1 TM YTE (antibody, V domains shown)
VH: QVQLVQSGAEVKKPGSSVKVSCKASGGTFSTYGISWVRQAPGQGLEWMGGIIPIFDTGNSAQSFQGRVTITADESTSTAYMELSSLRSEDTAVYYCARSSRIYDLNPSLTAYYDMDVWGQGTMVTVSS
VL: QSVLTQPPSVSAAPGQKVTISCSGSSSNIGNNYVSWYQQLPGTAPKLLIYDNNKRPSGIPDRFSGSKSGTSATLGITGLQTGDEADYYCGTWDSSLSAWVFGGGTKLTVL
- IC50 (read off the curve), human NGF-induced TF-1 proliferation [1]: ~0.7 nM
- IC50 (read off the curve), murine NGF-induced TF-1 proliferation [2]: ~0.3 nM
